# According to the supplement of paper PMC9112550, “Optimization of the antimicrobial peptide Bac7 by deep mutational scanning” (BMC Biology, 2022):
# Test system: Escherichia coli TOP10
# Experiment: shrunken log2 fold change of peptide-encoding DNA abundance (4.5 h post-induction vs induction); higher = less antimicrobial activity (less host growth inhibition)
# Settings: time post-induction: 4.5 h; library: site-saturation at positions 5, 18, 19, 20
# 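Also: peptides expressed intracellularly from a pBAD plasmid library in pooled LB shake-flask culture, induced with 0.3% L-arabinose, DNA abundance read by NGS, three biological replicates, DESeq2 with apeglm shrinkage.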
row,Sequence,shrunken log2 fold change
1,RRIRQRPPRLPRPRPRPPKHPRP,-0.142
2,RRIRKRPPRLPRPRPRPQRAPRP,0.944
3,RRIRWRPPRLPRPRPRPKDVPRP,-0.0454
4,RRIRDRPPRLPRPRPRPVFVPRP,0.225
5,RRIRRRPPRLPRPRPRPRVNPRP,0.398
6,RRIRLRPPRLPRPRPRPSTRPRP,0.174
7,RRIRQRPPRLPRPRPRPCNTPRP,-0.257
8,RRIRLRPPRLPRPRPRPMQTPRP,0.0393
9,RRIRTRPPRLPRPRPRPYLWPRP,-0.284
10,RRIRDRPPRLPRPRPRPHNWPRP,-0.144
11,RRIRWRPPRLPRPRPRPCVYPRP,-0.00208
12,RRIRSRPPRLPRPRPRPNFLPRP,-0.304
13,RRIRPRPPRLPRPRPRPQFMPRP,-0.259
14,RRIRVRPPRLPRPRPRPQVFPRP,-0.0729
15,RRIRRRPPRLPRPRPRPLWYPRP,-0.166
16,RRIRWRPPRLPRPRPRPLYPPRP,-0.208
17,RRIRDRPPRLPRPRPRPGKNPRP,-0.543
18,RRIRTRPPRLPRPRPRPSVEPRP,0.0926
19,RRIRIRPPRLPRPRPRPFVGPRP,-0.134
20,RRIRRRPPRLPRPRPRPHMFPRP,0.119
21,RRIRRRPPRLPRPRPRPADHPRP,-0.115
22,RRIRTRPPRLPRPRPRPYPTPRP,-0.374
23,RRIRVRPPRLPRPRPRPPDWPRP,0.46
24,RRIRCRPPRLPRPRPRPCKAPRP,-0.0437
25,RRIRARPPRLPRPRPRPDISPRP,0.277

row,Sequence,shrunken log2 fold change
1,RRIRWRPPRLPRPRPRPCRKPRP,-0.0352
2,RRIRQRPPRLPRPRPRPNMDPRP,-0.225
3,RRIRQRPPRLPRPRPRPFVVPRP,0.0366
4,RRIRHRPPRLPRPRPRPDWGPRP,0.0592
5,RRIRKRPPRLPRPRPRPMVLPRP,-0.191
6,RRIRKRPPRLPRPRPRPLRNPRP,0.653
7,RRIRERPPRLPRPRPRPGIEPRP,0.00615
8,RRIRKRPPRLPRPRPRPMEQPRP,0.033
9,RRIRERPPRLPRPRPRPYTRPRP,-0.252
10,RRIRHRPPRLPRPRPRPSIMPRP,-0.423
11,RRIRYRPPRLPRPRPRPGVPPRP,0.241
12,RRIRRRPPRLPRPRPRPNLVPRP,-0.023
13,RRIRGRPPRLPRPRPRPPYWPRP,0.355
14,RRIRPRPPRLPRPRPRPTIHPRP,-0.428
15,RRIRPRPPRLPRPRPRPKRGPRP,0.484
16,RRIRWRPPRLPRPRPRPNNCPRP,0.00476
17,RRIRYRPPRLPRPRPRPWLVPRP,-0.096
18,RRIRSRPPRLPRPRPRPAPFPRP,0.201
19,RRIRDRPPRLPRPRPRPSANPRP,0.119
20,RRIRERPPRLPRPRPRPNICPRP,-0.523
21,RRIRTRPPRLPRPRPRPHCSPRP,-0.0966
22,RRIRPRPPRLPRPRPRPIVFPRP,-0.293
23,RRIRCRPPRLPRPRPRPMIMPRP,-0.854
24,RRIRGRPPRLPRPRPRPHHCPRP,-0.118
25,RRIRRRPPRLPRPRPRPPCMPRP,0.404

row,Sequence,shrunken log2 fold change
1,RRIRTRPPRLPRPRPRPVEDPRP,0.0389
2,RRIRMRPPRLPRPRPRPPMQPRP,0.504
3,RRIRTRPPRLPRPRPRPFGVPRP,0.0203
4,RRIRFRPPRLPRPRPRPESIPRP,-0.126
5,RRIRVRPPRLPRPRPRPSRLPRP,0.599
6,RRIRGRPPRLPRPRPRPRNGPRP,0.343
7,RRIRGRPPRLPRPRPRPKCMPRP,0.209
8,RRIRKRPPRLPRPRPRPNTGPRP,0.382
9,RRIRGRPPRLPRPRPRPQNGPRP,3.22
10,RRIRCRPPRLPRPRPRPWHEPRP,-0.0591
11,RRIRARPPRLPRPRPRPTNWPRP,0.835
12,RRIRRRPPRLPRPRPRPNNAPRP,-0.18
13,RRIRARPPRLPRPRPRPLCGPRP,0.467
14,RRIRKRPPRLPRPRPRPWVKPRP,-0.148
15,RRIRDRPPRLPRPRPRPRVMPRP,0.106
16,RRIRWRPPRLPRPRPRPTKLPRP,0.156
17,RRIRCRPPRLPRPRPRPQTDPRP,-0.00613
18,RRIRCRPPRLPRPRPRPVESPRP,-0.0217
19,RRIRHRPPRLPRPRPRPHYAPRP,-0.992
20,RRIRIRPPRLPRPRPRPCFDPRP,-0.493
21,RRIRTRPPRLPRPRPRPLCIPRP,-0.693
22,RRIRFRPPRLPRPRPRPTSRPRP,-0.291
23,RRIRNRPPRLPRPRPRPFGMPRP,0.0298
24,RRIRARPPRLPRPRPRPPKFPRP,0.121
25,RRIRKRPPRLPRPRPRPWGSPRP,-0.034

row,Sequence,shrunken log2 fold change
1,RRIRNRPPRLPRPRPRPAQLPRP,-0.207
2,RRIRQRPPRLPRPRPRPIEAPRP,-0.00454
3,RRIRKRPPRLPRPRPRPENEPRP,0.918
4,RRIRCRPPRLPRPRPRPGFGPRP,0.399
5,RRIRYRPPRLPRPRPRPRSWPRP,-0.0913
6,RRIRTRPPRLPRPRPRPFTNPRP,-0.0559
7,RRIRFRPPRLPRPRPRPDCDPRP,-0.147
8,RRIRLRPPRLPRPRPRPAFGPRP,0.359
9,RRIRNRPPRLPRPRPRPHMMPRP,-0.326
10,RRIRHRPPRLPRPRPRPSYKPRP,-0.0553
11,RRIRIRPPRLPRPRPRPGWMPRP,0.0116
12,RRIRIRPPRLPRPRPRPHFQPRP,-1.78
13,RRIRWRPPRLPRPRPRPMQNPRP,0.459
14,RRIRSRPPRLPRPRPRPKKEPRP,0.00678
15,RRIRFRPPRLPRPRPRPEYFPRP,0.186
16,RRIRKRPPRLPRPRPRPWPFPRP,0.0352
17,RRIRMRPPRLPRPRPRPYTWPRP,-0.101
18,RRIRTRPPRLPRPRPRPQDEPRP,-0.152
19,RRIRARPPRLPRPRPRPGFNPRP,0.252
20,RRIRSRPPRLPRPRPRPFAMPRP,-0.0258
21,RRIRDRPPRLPRPRPRPWYYPRP,0.0606
22,RRIRARPPRLPRPRPRPIWQPRP,0.166
23,RRIRPRPPRLPRPRPRPIARPRP,-0.0116
24,RRIRARPPRLPRPRPRPIGLPRP,0.076
25,RRIRMRPPRLPRPRPRPLLPPRP,0.354

row,Sequence,shrunken log2 fold change
1,RRIRWRPPRLPRPRPRPWMSPRP,-0.353
2,RRIRHRPPRLPRPRPRPSSGPRP,-0.427
3,RRIRIRPPRLPRPRPRPDFSPRP,-0.175
4,RRIRVRPPRLPRPRPRPHLWPRP,-0.0616
5,RRIRIRPPRLPRPRPRPRVPPRP,1.5
6,RRIRTRPPRLPRPRPRPEKSPRP,0.288
7,RRIRPRPPRLPRPRPRPEEYPRP,0.00398
8,RRIRGRPPRLPRPRPRPFTQPRP,-0.0854
9,RRIRLRPPRLPRPRPRPCMHPRP,-0.0286
10,RRIRYRPPRLPRPRPRPCIMPRP,-3.3
11,RRIRQRPPRLPRPRPRPGNDPRP,-0.299
12,RRIRVRPPRLPRPRPRPGKTPRP,0.0999
13,RRIRGRPPRLPRPRPRPVNHPRP,0.301
14,RRIRRRPPRLPRPRPRPIHHPRP,-0.207
15,RRIRIRPPRLPRPRPRPKSRPRP,-0.108
16,RRIRARPPRLPRPRPRPAPGPRP,0.972
17,RRIRWRPPRLPRPRPRPSMDPRP,-0.128
18,RRIRDRPPRLPRPRPRPCHHPRP,-0.0426
19,RRIRERPPRLPRPRPRPCTKPRP,-0.63
20,RRIRIRPPRLPRPRPRPIRRPRP,0.00942
21,RRIRGRPPRLPRPRPRPEEYPRP,0.0595
22,RRIRRRPPRLPRPRPRPKHKPRP,0.339
23,RRIRERPPRLPRPRPRPWDEPRP,0.0271
24,RRIRYRPPRLPRPRPRPSAKPRP,-0.117
25,RRIRARPPRLPRPRPRPKFAPRP,0.306

row,Sequence,shrunken log2 fold change
1,RRIRSRPPRLPRPRPRPEHEPRP,-0.182
2,RRIRERPPRLPRPRPRPGAQPRP,-0.23
3,RRIRMRPPRLPRPRPRPELVPRP,0.0445
4,RRIRHRPPRLPRPRPRPNTTPRP,-0.019
5,RRIRMRPPRLPRPRPRPKLHPRP,0.325
6,RRIRSRPPRLPRPRPRPYHLPRP,-0.415
7,RRIRIRPPRLPRPRPRPAMPPRP,0.0692
8,RRIRIRPPRLPRPRPRPQQMPRP,-0.0189
9,RRIRFRPPRLPRPRPRPMMIPRP,-0.018
10,RRIRIRPPRLPRPRPRPDVSPRP,-0.121
11,RRIRTRPPRLPRPRPRPTTGPRP,-0.191
12,RRIRLRPPRLPRPRPRPMNAPRP,-0.446
13,RRIRLRPPRLPRPRPRPMVFPRP,0.0182
14,RRIRNRPPRLPRPRPRPGHNPRP,-0.64
15,RRIRVRPPRLPRPRPRPKNIPRP,-0.505
16,RRIRMRPPRLPRPRPRPMEVPRP,0.0214
17,RRIRDRPPRLPRPRPRPIKVPRP,0.00881
18,RRIRTRPPRLPRPRPRPKKQPRP,-0.15
19,RRIRWRPPRLPRPRPRPQKQPRP,0.184
20,RRIRWRPPRLPRPRPRPRRWPRP,0.482
21,RRIRKRPPRLPRPRPRPCYKPRP,0.0747
22,RRIRERPPRLPRPRPRPDMSPRP,-0.064
23,RRIRGRPPRLPRPRPRPVKMPRP,0.127
24,RRIRYRPPRLPRPRPRPDNMPRP,-0.0223
25,RRIRERPPRLPRPRPRPAPNPRP,0.258
